Assay results published in PMC4170648, “Clinically used antirheumatic agent auranofin is a proteasomal deubiquitinase inhibitor and inhibits tumor growth” (Oncotarget, 2014).

Biological target: T1, HA-tagged ubiquitin-Vinyl Sulfone (UniProt P0CG48 1-76, vinyl sulfone (position not given))
T1 construct: ubiquitin, the mature cut product of a ubiquitin precursor, carrying a vinyl sulfone warhead; Commercial active-site probe; also called HA-UbVS; HA-Ub-VS; source: bought: Boston Biochem
Experiment: active-site-directed covalent labelling with HA-UbVS; purified 26S proteasomes (25 nM) incubated with HA-UbVS for 1 h at 37°C, boiled in reducing sample buffer, SDS-PAGE, HA immunoblot; without Aur, and after 2 μM Aur for 10 min (labelling reduced)
Settings: both partners purified

B1: UCHL5 (enzyme, human, UniProt Q9Y5K5 1-329, looked up)
chain: MTGNAGEWCLMESDPGVFTELIKGFGCRGAQVEEIWSLEPENFEKLKPVHGLIFLFKWQPGEEPAGSVVQDSRLDTIFFAKQVINNACATQAIVSVLLNCTHQDVHLGETLSEFKEFSQSFDAAMKGLALSNSDVIRQVHNSFARQQMFEFDTKTSAKEEDAFHFVSYVPVNGRLYELDGLREGPIDLGACNQDDWISAVRPVIEKRIQKYSEGEIRFNLMAIVSDRKMIYEQKIAELQRQLAEEEPMDTDQGNSMLSAIQSEVAKNQMLIEEEVQKLKRYKIENIRRKHNYLPFIMELLKTLAEHQQLIPLVEKAKEKQNAKKAQETK
notes: UCHL5/Uch37, human, deubiquitinase associated with the 19S regulatory particle, present in purified 26S proteasomes; It stood in the assay as a component of the bought 26S proteasome and was resolved as a labelled band on SDS-PAGE; PDB 3RIS was used only for docking of the small molecule; also called UCHL5/Uch37; source: bought: Boston Biochem, as part of purified human 26S proteasomes
binding result: binds
